In patent US20240317834A1, “COMPOSITIONS AND METHODS FOR NEUROLOGICAL DISEASES” (CODA BIOTHERAPEUTICS, INC., priority 2020, published 2024):

System: Lenti-X 293T cells
Experiment: YFP fluorescence quenching anion reporter plate reader assay of engineered receptors stimulated with acetylcholine or a non-native ligand
Format: cell-based
Conditions: for percent quench of YFP fluorescence, 1 mM ach: acetylcholine 1 mM; for percent quench of YFP fluorescence, 3 mM ach: acetylcholine 3 mM
How it was run: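 Lenti-X 293T cells carrying a YFP anion reporter were transiently transfected with channel DNA and assayed the next day in HEPES-buffered ECS at pH 7.2. Ligand (acetylcholine or non-native ligand) was added in NaI-substituted ECS. Percent quench was the mean of the last 10 s relative to the 15 s pre-addition baseline.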

B1: CODA1173: engineered chimeric LGIC receptor, S172D, Y210W in SEQ ID NO: 33 (protein)
chain: MRCSPGGVWLALAASLLHVSLQGEFQRKLYKELVKNYNPLERPVANDSQPLTVYFSLSLLQIMDVDEKNQVLTTNIWLQMSWTDHYLQWNVSEYPGVKTVRFPDGQIWKPDILLYNSADERFDATFHTNVLVNSSGHCQYLPPGIFKSSCPMDLKNFPMDVQTCKLKFGSWDYGGWSLDLQMQEADISGYIPNGEWDLVGIPGKRSERFWECCKEPYPDVTFTVTMRRRMGYYLIQMYIPSLLIVILSWISFWINMDAAPARVGLGITTVLTMTTQSSGSRASLPKVSYVKAIDIWMAVCLLFVFSALLEYAAVNFVSRQHKELLRFRRKRRHHKSPMLNLFQEDEAGEGRFNFSAYGMGPACLQAKDGISVKGANNSNTTNPPPAPSKSPEEMRKLFIQRAKKIDKISRIGFPMAFLIFNMFYWIIYKIVRREDVHNQ
modifications: synthetic sequence of chimeric LGIC
**Q.** Which “YFP fluorescence quenching using CNL001” value (1 nM CNL001, first column) does the source give for B1 here?
**A.** 16.321%

**Q.** And the “YFP fluorescence quenching using CNL001” value (1 nM CNL001, second column)?
**A.** 30.264%

**Q.** And the “YFP fluorescence quenching using Varenicline” value (3 nM var, first column)?
**A.** 9.211

**Q.** What about the “YFP fluorescence quenching using Varenicline” value (3 nM var, second column) of the same molecule?
**A.** 7.193

**Q.** What about the “YFP fluorescence quenching using CNL001” value (10 nM CNL001, first column) of the same molecule?
**A.** 61.978%

**Q.** And the “YFP fluorescence quenching using CNL001” value (10 nM CNL001, second column)?
**A.** 65.343%

**Q.** What about the “YFP fluorescence quenching using Varenicline” value (30 nM var, first column) of the same molecule?
**A.** 7.821

**Q.** What about the “YFP fluorescence quenching using Varenicline” value (30 nM var, second column) of the same molecule?
**A.** 9.078

**Q.** What about the “YFP fluorescence quenching using CNL001” value (50 nM CNL001, first column) of the same molecule?
**A.** 73.006%

**Q.** And the “YFP fluorescence quenching using CNL001” value (50 nM CNL001, second column)?
**A.** 74.903%

**Q.** And the “YFP fluorescence quenching using ABT-126” value (50 nM abt)?
**A.** 5.15%

**Q.** What about the “YFP fluorescence quenching using CNL001” value (100 nM CNL001, first column) of the same molecule?
**A.** 76%

**Q.** And the “YFP fluorescence quenching using CNL001” value (100 nM CNL001, second column)?
**A.** 76.759%

**Q.** What about the “YFP fluorescence quenching using CNL002” value (100 nM CNL002) of the same molecule?
**A.** 70.15%

**Q.** What about the “YFP fluorescence quenching using ABT-126” value (100 nM abt) of the same molecule?
**A.** 25.08%

**Q.** What about the “YFP fluorescence quenching using ABT-126” value (300 nM abt) of the same molecule?
**A.** 66.86%

**Q.** What about the “YFP fluorescence quenching using Varenicline” value (300 nM var, first column) of the same molecule?
**A.** 6.933

**Q.** What about the “YFP fluorescence quenching using Varenicline” value (300 nM var, second column) of the same molecule?
**A.** 8.36

**Q.** What about the “YFP fluorescence quenching using Varenicline” value (500 nM var, first column) of the same molecule?
**A.** 5.501

**Q.** And the “YFP fluorescence quenching using Varenicline” value (500 nM var, second column)?
**A.** 7.04

**Q.** What about the “YFP fluorescence quenching using CNL001” value (1 uM CNL001, first column) of the same molecule?
**A.** 76.928%

**Q.** And the “YFP fluorescence quenching using CNL001” value (1 uM CNL001, second column)?
**A.** 76.619%

**Q.** And the “YFP fluorescence quenching using CNL002” value (1 uM CNL002)?
**A.** 77.33%

**Q.** And the “YFP fluorescence quenching using ABT-126” value (1 uM abt)?
**A.** 66.94%

**Q.** And the “YFP fluorescence quenching using Varenicline” value (1 uM var, first column)?
**A.** 7.174

**Q.** And the “YFP fluorescence quenching using Varenicline” value (1 uM var, second column)?
**A.** 5.185

**Q.** And the “YFP fluorescence quenching using ABT-126” value (10 uM abt)?
**A.** 78.67%

**Q.** And the “percent quench of YFP fluorescence, 1 mM ach” value?
**A.** −6.12%

**Q.** And the “percent quench of YFP fluorescence, 3 mM ach” value?
**A.** 11.31%

B2: CODA75: non-responding chimeric engineered receptor used as the negative control (protein)
chain: MRCSPGGVWLALAASLLHVSLQGEFQRKLYKELVKNYNPLERPVANDSQPLTVYFSLSLLQIMDVDEKNQVLTTNIWLQMSWTDHYLQWNVSEYPGVKTVRFPDGQIWKPDILLYNSADERFDATFHTNVLVNSSGHCQYLPPGIFKSSCYIDVRWFPFDVQHCKLKFGSWSYGGWSLDLQMQEADISGYIPNGEWDLVGIPGKRSERFYECCKEPYPDVTFTVTMRRRTGYYLIQMYIPSLLIVILSWISFWINMDAAPARVGLGITTVLTMTTQSSGSEIMPATSDSVPLIAQAIDIWMAVCLLFVFSALLEYAAVNFVSRQHKELLRFRRKRRHHKSPMLNLFQEDEAGEGRFNFSAYGMGPACLQAKDGISVKGANNSNTTNPPPAPSKSPEEMRKLFIQRAKKIDKISRIGFPMAFLIFNMFYWIIYKIVRREDVHNQ
modifications: synthetic sequence of chimeric LGIC
notes: non-responding chimeric engineered receptor used as the negative control
**Q.** How did the “YFP fluorescence quenching using CNL001” value (1 nM CNL001, first column) turn out when B2 was run?
**A.** −8.496%

**Q.** What about the “YFP fluorescence quenching using CNL001” value (1 nM CNL001, second column) of the same molecule?
**A.** −2.266%

**Q.** And the “YFP fluorescence quenching using TC-5619/Bradanicline” value (1 nM brd)?
**A.** −13.39%

**Q.** And the “YFP fluorescence quenching using TC-5619/Bradanicline” value (3 nM brd)?
**A.** −15.78%

**Q.** What about the “YFP fluorescence quenching using Varenicline” value (3 nM var, first column) of the same molecule?
**A.** 4.161

**Q.** And the “YFP fluorescence quenching using Varenicline” value (3 nM var, second column)?
**A.** −6.216

**Q.** What about the “YFP fluorescence quenching using CNL001” value (10 nM CNL001, first column) of the same molecule?
**A.** 1.816%

**Q.** What about the “YFP fluorescence quenching using CNL001” value (10 nM CNL001, second column) of the same molecule?
**A.** −4.649%

**Q.** And the “YFP fluorescence quenching using TC-5619/Bradanicline” value (10 nM brd)?
**A.** −13.47%

**Q.** And the “YFP fluorescence quenching using TC-5619/Bradanicline” value (30 nM brd)?
**A.** −16.41%

**Q.** And the “YFP fluorescence quenching using Facinicline” value (30 nM fac)?
**A.** −11.68

**Q.** What about the “YFP fluorescence quenching using Varenicline” value (30 nM var, first column) of the same molecule?
**A.** −5.173

**Q.** What about the “YFP fluorescence quenching using Varenicline” value (30 nM var, second column) of the same molecule?
**A.** −6.593

**Q.** And the “YFP fluorescence quenching using CNL001” value (50 nM CNL001, first column)?
**A.** −5.922%

**Q.** And the “YFP fluorescence quenching using CNL001” value (50 nM CNL001, second column)?
**A.** −5.597%

**Q.** What about the “YFP fluorescence quenching using ABT-126” value (50 nM abt) of the same molecule?
**A.** −17.07%

**Q.** What about the “YFP fluorescence quenching using CNL001” value (100 nM CNL001, first column) of the same molecule?
**A.** −8.159%

**Q.** What about the “YFP fluorescence quenching using CNL001” value (100 nM CNL001, second column) of the same molecule?
**A.** −5.058%

**Q.** What about the “YFP fluorescence quenching using CNL002” value (100 nM CNL002) of the same molecule?
**A.** −7.94%

**Q.** What about the “YFP fluorescence quenching using ABT-126” value (100 nM abt) of the same molecule?
**A.** −16.76%

**Q.** And the “YFP fluorescence quenching using AZD-0328” value (100 nM azd0328)?
**A.** −8.83%

**Q.** What about the “YFP fluorescence quenching using Facinicline” value (100 nM fac) of the same molecule?
**A.** 4.35

**Q.** What about the “YFP fluorescence quenching using ABT-126” value (300 nM abt) of the same molecule?
**A.** −16.76%

**Q.** And the “YFP fluorescence quenching using AZD-0328” value (300 nM azd0328)?
**A.** −11.15%

**Q.** And the “YFP fluorescence quenching using TC-5619/Bradanicline” value (300 nM brd)?
**A.** −17.56%

**Q.** And the “YFP fluorescence quenching using Facinicline” value (300 nM fac)?
**A.** −10.55

**Q.** And the “YFP fluorescence quenching using Varenicline” value (300 nM var, first column)?
**A.** −5.733

**Q.** And the “YFP fluorescence quenching using Varenicline” value (300 nM var, second column)?
**A.** −7.312

**Q.** And the “YFP fluorescence quenching using ABT-126” value (500 nM abt)?
**A.** −14.68%

**Q.** What about the “YFP fluorescence quenching using Varenicline” value (500 nM var, first column) of the same molecule?
**A.** −10.35

**Q.** What about the “YFP fluorescence quenching using Varenicline” value (500 nM var, second column) of the same molecule?
**A.** −7.586

**Q.** And the “YFP fluorescence quenching using CNL001” value (1 uM CNL001, first column)?
**A.** −4.272%

**Q.** What about the “YFP fluorescence quenching using CNL001” value (1 uM CNL001, second column) of the same molecule?
**A.** −1.281%

**Q.** What about the “YFP fluorescence quenching using CNL002” value (1 uM CNL002) of the same molecule?
**A.** −9.81%

**Q.** What about the “YFP fluorescence quenching using ABT-126” value (1 uM abt) of the same molecule?
**A.** −16%

**Q.** And the “YFP fluorescence quenching using TC-6987” value (1 uM tc6987)?
**A.** −11.79

**Q.** And the “YFP fluorescence quenching using Varenicline” value (1 uM var, first column)?
**A.** −5.637

**Q.** And the “YFP fluorescence quenching using Varenicline” value (1 uM var, second column)?
**A.** −3.757

**Q.** What about the “YFP fluorescence quenching using ABT-126” value (3 uM abt) of the same molecule?
**A.** −14.11%

**Q.** And the “YFP fluorescence quenching using ABT-126” value (10 uM abt)?
**A.** −13.98%

**Q.** And the “YFP fluorescence quenching using TC-6987” value (10 uM tc6987)?
**A.** −14.31

**Q.** And the “YFP fluorescence quenching using CNL002” value (30 uM CNL002)?
**A.** −15.27%

**Q.** What about the “YFP fluorescence quenching using ABT-126” value (30 uM abt) of the same molecule?
**A.** −21.05%

**Q.** What about the “YFP fluorescence quenching using AZD-0328” value (30 uM azd0328) of the same molecule?
**A.** −11.92%

**Q.** What about the “YFP fluorescence quenching using Facinicline” value (30 uM fac) of the same molecule?
**A.** −5.25

**Q.** What about the “YFP fluorescence quenching using ABT-126” value (50 uM abt) of the same molecule?
**A.** −21.35%

**Q.** What about the “YFP fluorescence quenching using ABT-126” value (100 uM abt) of the same molecule?
**A.** −24.12%

**Q.** What about the “YFP fluorescence quenching using TC-6987” value (500 uM tc6987) of the same molecule?
**A.** −19.65

**Q.** And the “percent quench of YFP fluorescence, 10 uM ach” value (acetylcholine 10 uM)?
**A.** −12.88%

**Q.** What about the “percent quench of YFP fluorescence, 30 uM ach” value (acetylcholine 30 uM) of the same molecule?
**A.** −18.67%

**Q.** What about the “percent quench of YFP fluorescence, 50 uM ach” value (acetylcholine 50 uM) of the same molecule?
**A.** −0.29%

**Q.** What about the “percent quench of YFP fluorescence, 100 uM ach” value (acetylcholine 100 uM) of the same molecule?
**A.** −14.46%

**Q.** And the “percent quench of YFP fluorescence, 300 uM ach” value (acetylcholine 300 uM)?
**A.** −16.31%

**Q.** What about the “percent quench of YFP fluorescence, 500 uM ach” value (acetylcholine 500 uM) of the same molecule?
**A.** −17.41%

**Q.** And the “percent quench of YFP fluorescence, 1 mM ach” value?
**A.** −16.46%

**Q.** What about the “percent quench of YFP fluorescence, 3 mM ach” value of the same molecule?
**A.** −12.38%

**Q.** What about the “percent quench of YFP fluorescence, 5 mM ach” value (acetylcholine 5 mM) of the same molecule?
**A.** −20.88%

**Q.** And the “percent quench of YFP fluorescence, 10 mM ach” value (acetylcholine 10 mM)?
**A.** −8.69%
